Here are results for three molecules from patent US20260042865A1 (Amgen, published 2026).

As usually defined, the Kd is the free concentration of one partner at which half of the binding sites on the other are occupied at equilibrium, for simple one-to-one binding. High values mean weaker binding, low ones tighter binding.

Test [1] addresses T1, Mouse ASGR1 protein (R&D Systems cat #2755-AS/CF) (mouse, UniProt P34927 61-284, limits assumed).
T1 construct: Bought protein; also called muASGR1
T1 sequence (looked up): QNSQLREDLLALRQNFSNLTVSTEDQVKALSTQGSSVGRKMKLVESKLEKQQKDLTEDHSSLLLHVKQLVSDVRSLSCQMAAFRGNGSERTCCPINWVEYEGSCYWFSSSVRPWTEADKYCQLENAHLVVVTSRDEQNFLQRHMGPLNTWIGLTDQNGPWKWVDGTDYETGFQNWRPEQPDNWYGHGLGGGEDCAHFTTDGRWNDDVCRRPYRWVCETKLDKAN
The experiment in a line: SPR (BIAcore 3000), mouse ASGR1 immobilized, pH 7.4 with 2 mM Ca2+. Here is the method: (§1) The binding of anti-ASGR1 antibodies binding ASGR1 in a pH/Ca2+ dependent or independent manner was assessed by BIAcore. Equilibrium binding affinities of the interaction between (i) mouse or human ASGR1 and anti-ASGR1 antibodies; and (ii) mouse or human ASGR1 and bispecific scFv molecules of the present inventions were determined using BIAcore 3000. Mouse and human ASGR1 proteins were obtained from R&D-systems (cat #2755-AS/CF and 4394-AS/CF, respectively) and immobilized on CM5 chips using amine coupling chemistry to a density of ˜1500 RU. On each CM5 chip a reference flow cell is used which was coupled with coupling buffer only. Antibodies were injected over immobilized ASGR1 at a concentration range of 1000 nM-0.2 nM, with a two-fold serial dilution. To determine pH/Ca-sensitive binding, runs were performed using phosphate buffered saline (PBS) with 0.01% (v/v) Tween20 and 0.05% azide with either pH 7.4/2 mM calcium chloride or pH 6.0/2 μM calcium chloride. The chip was regenerated using 0.15 M NaCl, 0.1 M glycine pH 1.5 buffer between each injection cycles. Equilibrium dissociation constants were determined using 1:1 interaction model using BIAevaluation.

Test [2] has as its target T2, Human ASGR1 protein (R&D Systems cat #4394-AS/CF) (human, UniProt P07306 62-291).
T2 construct: Bought protein; also called huASGR1
T2 sequence (looked up): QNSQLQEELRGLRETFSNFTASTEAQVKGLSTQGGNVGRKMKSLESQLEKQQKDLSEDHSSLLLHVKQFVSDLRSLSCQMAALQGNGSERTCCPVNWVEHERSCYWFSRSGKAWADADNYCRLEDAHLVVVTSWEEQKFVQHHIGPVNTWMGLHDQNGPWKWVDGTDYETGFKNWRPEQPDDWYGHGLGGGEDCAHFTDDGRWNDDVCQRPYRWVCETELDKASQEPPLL
In words: SPR (BIAcore 3000), human ASGR1 immobilized, pH 7.4 with 2 mM Ca2+. Here is the method: as §1
Background: SPR reads the build-up and loss of mass on a sensor chip optically.

Test [3] has as its target T1, Mouse ASGR1 protein (R&D Systems cat …). In words: SPR (BIAcore 3000), mouse ASGR1 immobilized, antibody analyte, pH 6, 2 uM CaCl2. Here is the method: (§2) Antibodies binding to ASGR1 in a pH/Ca2+-dependent manner were screened by employing surface plasmon resonance. Antibodies were screened either at pH 7.4 with 2 mM CaCl2 or at pH 6.0 with 2 μM CaCl2 to analyze the binding to ASGR1. KD values were determined by immobilizing receptor on the chip and antibodies as analytes.
(§3) Equilibrium binding affinities of the interaction between mouse ASGR1 and anti-ASGR1 antibodies were determined using BIAcore 3000. Mouse ASGR1 protein was obtained from R&D-systems (cat #2755-AS/CF) and immobilized on CM5 chips using amine coupling chemistry to a density of ˜1500 RU. On each CM5 chip a reference flow cell is used which was coupled with coupling buffer only. Antibodies were injected over immobilized ASGR1 at a concentration range of 1000 nM-0.2 nM, with a two-fold serial dilution. To determine pH/Ca-sensitive binding, runs were performed using phosphate buffered saline (PBS) with 0.01% (v/v) Tween20 and 0.05% azide with either pH 7.4/2 mM calcium chloride or pH 6.0/2 μM calcium chloride. The chip was regenerated using 0.15 M NaCl, 0.1 M glycine pH 1.5 buffer between each injection cycles. Equilibrium dissociation constants were determined using 1:1 interaction model using BIAevaluation.

For test [4] the target is unchanged. The experiment in a line: SPR (BIAcore 3000), mouse ASGR1 immobilized, antibody analyte, pH 7.4, 2 mM CaCl2. As for the experimental part: as §2, §3
Test [5] has the same target. In words: SPR (BIAcore 3000), mouse ASGR1 immobilized, pH 7.4 with 2 mM Ca2+; pH 7.4 with 2 mM Ca2+; Table 3 experiment (comparison with bispecific scFv). As for the experimental part: as §1
The target is the same in test [6]. In words: SPR (BIAcore 3000), mouse ASGR1 immobilized, antibody analyte, pH 7.4, 2 mM CaCl2; pH 7.4, 2 mM CaCl2; Table 1 experiment.

B1: Catabolic bispecific scFv molecule (binds ASGR1 in a catabolic manner and Ig in a non-catabolic manner) (bispecific antibody)
scFv: ELQLQQSGAELVRPGASVKLSCTTSGFNVKDTYIHWVRQRPEQGLEWIGRIDPANGNTKYDPKFQDRATITTDTSSITAYLQLSSLTSEDTAVYYCARNYGSNYDPMDYWGQGTSLTVSSGGGGSGGGGSGGGGSDILLTQSPAILSVSPGERVSFSCRASQNIDTNIHWYQRRTNDSPRLLIKYASESISGIPSRFSGSGSGTDFTLSINSVESEDIADYYCQQSDTWPWTFGGGTKLEIKRSGGGGSQVQLVESGGGVVQPGRSLRLSCAASGFTFSSYGMHWVRQAPGKGLEWVAVIWYDGSNKYYADSVKGRFTISRDNSKNTLYLQMNSLRAEDTAVYYCARDSSPYGMDVWGQGTTVTVSSGGGGSGGGGSGGGGSDIQMTQSPSSVSASVGDRVTITCRASQGISSWLAWYQQKPGKAPKLLIYGASSLQSGVPSRFSASGSGTDFTLTISSLQPEDFATYYCQQSDSFPRTFGQGTKVEIKRHHHHHH
notes: Single chain: anti-IgG scFv, SG4S linker, catabolic anti-ASGR1 scFv, C-terminal 6xHis; also called CAT bispecific scFv molecule; CAT-bispecific scFv molecule
On to B1, for which the Kd in test [1] was 78.3 nM; in test [2], 23 nM.

B2: Non-catabolic anti-ASGR1 antibody (antibody, human IgG1, kappa, N297G, V domains shown)
VH: EVQLVESGGGLVQPGRSLKLSCAASGFTFSDYNMAWVRQAPKKGLEWVATIIYDGGSTYYRHSVKGRFTISRDNAKSTHSLQMDSLRSEDTATYYCARQTYFGSRDYFDYWGQGVMVTVSS
VL: DIQMTQSPTSLSASLGETVSIECLTSEDIYNNLAWYQQKPGKSPQLLISYASNFQDGVPSRFSGSGSGTQYSLKINSLESEDAATYFCLQDSEYPPTFGGGTKLELKR
notes: also called Non-CAT-WT; non-CAT mAb
Regarding B2, the figures for the dissociation constant Kd in test [3] and in test [4] were 5.5 nM and 6 nM, respectively.

B3: Catabolic anti-ASGR1 antibody (antibody, human IgG1, kappa, N297G, V domains shown)
VH: QVQLVESGGGVVQPGRSLRLSCAASGFTFSSYGMHWVRQAPGKGLEWVAVIWYDGSNKYYADSVKGRFTISRDNSKNTLYLQMNSLRAEDTAVYYCARDSSPYGMDVWGQGTTVTVSS
VL: DIQMTQSPSSVSASVGDRVTITCRASQGISSWLAWYQQKPGKAPKLLIYGASSLQSGVPSRFSASGSGTDFTLTISSLQPEDFATYYCQQSDSFPRTFGQGTKVEIKR
notes: also called CAT-WT; CAT mAb
Turning to B3, the Kd in test [5] is 12.1 nM; in test [6], 20 nM; in test [2] it was 4 nM.
